In patent US20230220084A1:

Experiments:
[1] = biological target: hCLEC12A-His fusion protein (human) (UniProt Q5QGZ9); experiment: SPR 37 C, hybridoma supernatant
[2] = biological target: human CLEC12A expressed on cells (human) (UniProt Q5QGZ9); experiment: flow cytometry, U937 cells
[3] = biological target: human CLEC12A expressed on cells (human) (UniProt Q5QGZ9); experiment: flow cytometry, RMA-hCLEC12A cells
[4] = biological target: cynomolgus CLEC12A expressed on RMA cells (cynomolgus monkey); experiment: flow cytometry, RMA-cCLEC12A cells
cynomolgus CLEC12A expressed on RMA cells (cynomolgus monkey), sequence (chain, as listed by the source): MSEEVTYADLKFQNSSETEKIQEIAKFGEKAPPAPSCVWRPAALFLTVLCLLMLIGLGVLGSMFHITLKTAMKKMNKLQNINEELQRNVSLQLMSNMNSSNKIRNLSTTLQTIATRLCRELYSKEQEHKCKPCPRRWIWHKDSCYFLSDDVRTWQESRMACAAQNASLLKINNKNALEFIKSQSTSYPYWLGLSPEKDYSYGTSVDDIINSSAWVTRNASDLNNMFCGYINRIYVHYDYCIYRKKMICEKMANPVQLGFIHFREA

[5] = biological target: human CLEC12A expressed on cells (human) (UniProt Q5QGZ9); experiment: flow cytometry, HL60 cells
[6] = biological target: human CLEC12A expressed on cells (human) (UniProt Q5QGZ9); experiment: flow cytometry, hCLEC12A+Ba/F3 cells
[7] = biological target: hCLEC12A-His fusion protein (human) (UniProt Q5QGZ9); experiment: SPR screening, semi-purified protein
[8] = biological target: hCLEC12A-His fusion protein (human) (UniProt Q5QGZ9); experiment: SPR, analyte glycosylated hCLEC12A
[9] = biological target: De-glycosylated hCLEC12A (human) (UniProt Q5QGZ9); experiment: SPR, analyte de-glycosylated hCLEC12A
De-glycosylated hCLEC12A (human), sequence (Q5QGZ9 65-265 limits assumed): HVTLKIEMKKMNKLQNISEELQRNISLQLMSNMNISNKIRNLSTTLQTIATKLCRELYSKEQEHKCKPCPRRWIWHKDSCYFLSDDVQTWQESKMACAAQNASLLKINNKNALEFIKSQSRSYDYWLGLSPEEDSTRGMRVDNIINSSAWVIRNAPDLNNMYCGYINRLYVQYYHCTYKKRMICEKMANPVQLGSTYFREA

[10] = biological target: De-sialylated hCLEC12A (human) (UniProt Q5QGZ9); experiment: SPR, analyte de-sialylated hCLEC12A
De-sialylated hCLEC12A (human), sequence (Q5QGZ9 65-265 limits assumed): as above

[11] = biological target: human CLEC12A expressed on cells (human) (UniProt Q5QGZ9); experiment: flow cytometry on RMA-hCLEC12A cells

human CLEC12A expressed on cells (human), sequence (Q5QGZ9 whole entry, the tested form may be a part): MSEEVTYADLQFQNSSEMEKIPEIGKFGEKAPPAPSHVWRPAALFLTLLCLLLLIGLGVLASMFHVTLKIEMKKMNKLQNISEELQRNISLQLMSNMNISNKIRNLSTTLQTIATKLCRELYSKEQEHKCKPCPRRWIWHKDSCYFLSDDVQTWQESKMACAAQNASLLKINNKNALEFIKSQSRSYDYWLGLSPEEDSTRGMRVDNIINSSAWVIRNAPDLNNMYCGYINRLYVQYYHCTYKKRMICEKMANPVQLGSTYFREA
hCLEC12A-His fusion protein (human), sequence (Q5QGZ9 65-265 limits assumed): as the sequence (Q5QGZ9 65-265 limits assumed) above

| Binder | EC50 [5] [nM] | EC50 [6] [nM] | Max binding MFI [5] [MFI] | Kd [7] [nM] | koff [7] [s⁻¹] | kon [7] [M⁻¹ s⁻¹] | Max binding MFI [6] [MFI] | further results |
| --- | --- | --- | --- | --- | --- | --- | --- | --- |
| 15A10 hybridoma supernatant antibody (antibody, from a related filing, V domains shown) VH: EVQLQESGAELVRSGASIKLSCAASAFNIKDYFIHWVRQRPDQGLEWIGWIDPENDDTEYAPKFQDKATMTADTSSNTAYLQLSSLTSADTAVYYCNALWSRGGYFDYWGQGTTLTVSS VL: EVLLTQSPAIIAASPGEKVTITCSARSSVSYMSWYQQKPGSSPKIWIYGISKLASGVPARFSGSGSGTYFSFTINNLEAEDVATYYCQQRSYYPFTFGSGTKLEIK |  |  |  |  |  |  |  | Kd [1]: 15.8 nM; koff [1]: 0.00223 s⁻¹; Cell Binding MFI [2]: 83.8 MFI; Cell Binding MFI [3]: 372 MFI; Cell Binding MFI [4]: 167 MFI |
| AB0010 (bispecific antibody, part only; not given: constant domains, Fc, unrelated scFv, V domains shown, not shown: another chain or arm of the molecule; a dimerising Fc or GST) VH: QLQLQESGPGLVKPSETLSLTCTVSGFSLTNYGLHWIRQPPGKGLEWIGVIWSGGKTDYNPSLKSRVTISKDTSKNQFSLKLSSVQAADTAVYYCAKYDYDDSLDYWGQGTLVTVSS VL: DIQMTQSPSSLSASVGDRVTITCHASQNINFWLSWYQQKPGKAPKLLIYEASNLHTGVPSRFSGSGSGTRFTLTISSLQPEDIATYYCQQSHSYPLTFGGGTKLEIK | 4.2 | 6.13 |  |  |  |  |  | Max MFI [5]: 6060 MFI; Max MFI [6]: 54800 MFI |
| 16B08 hybridoma supernatant antibody (antibody, from a related filing, V domains shown) VH: EVQLQESGPGLVQPSQSLSITCTVSGFSLTNYGLHWVRQSPGKGLEWLGVIWSGGKTDYNTPFKSRLSISKDISKNQVFFKMNSLQPNDTAIYFCAKYDYDDSLDYWGQGTSVTVSS VL: DIQMNQSPSSLSASLGDTIAITCHASQNINFWLSWYQQKPGNIPKLLIYEASNLHTGVPSRFSGSGSGTRFTLTISSLQPEDIATYYCQQSHSYPLTFGQGTKLEIK |  |  |  |  |  |  |  | Cell Binding MFI [2]: 44.1 MFI; Cell Binding MFI [3]: 819 MFI; Cell Binding MFI [4]: 1130 MFI |
| AB0185 (bispecific antibody, part only; not given: Fc, unrelated binder arm, linkers, not shown: another chain or arm of the molecule; a dimerising Fc or GST; small tags and cut ends) scFv: DIQMTQSPSSLSASVGDRVTITCKASQDIYNYLSWFQQKPGKAPKPLIYRANILVSGVPSRFSGSGSGQDYTFTISSLQPEDIATYYCLQFDAFPFTFGCGTKLEIKGGGGSGGGGSGGGGSGGGGSEVQLVESGGGVVQPGGSLRLSCAASGFTFNSFGMHWVRQAPGKCLEWVAFISSGSTSIYYANTVKGRFTISRDNSKNTLYLQMNSLRAEDTAVYYCARDGYPTGGAMDYWGQGTSVTVSS | 0.4 | 0.7 | 372 | 1.4 | 0.00101 | 726000 | 8020 |  |
| AB0186 (bispecific antibody, part only; not given: Fc, unrelated binder arm, linkers, not shown: another chain or arm of the molecule; a dimerising Fc or GST; small tags and cut ends) scFv: DIQMTQSPSSLSASVGDRVTITCKASQDIYNYLSWFQQKPGKAPKPLIYRANILVSGVPSRFSGSGSGQDYTFTISSLQPEDIATYYCLQFDAFPFTFGCGTKLEIKGGGGSGGGGSGGGGSGGGGSEVQLVESGGGVVQPGGSLRLSCAASGFTFNAFGMHWVRQAPGKCLEWVAFISSGSTSIYYANTVKGRFTISRDNSKNTLYLQMNSLRAEDTAVYYCARDGYPTGGAMDYWGQGTSVTVSS | 0.5 | 0.7 | 412 | 1.04 | 0.00117 | 1.12e+06 | 8160 |  |
| AB0188 (bispecific antibody, part only; not given: Fc, unrelated binder arm, linkers, not shown: another chain or arm of the molecule; a dimerising Fc or GST; small tags and cut ends) scFv: DIKMTQSPSSLSASVGDRVTITCKASQDIYNYLSWFQQKPGKAPKPLIYRANILVSGVPSRFSGSGSGQDYTLTISSLQPEDIATYYCLQFDAFPFTFGCGTKLEIKGGGGSGGGGSGGGGSGGGGSEVQLVESGGGVVQPGGSLRLSCAASGFTFNSFGMHWVRQAPGKCLEWVAFISSGSTSIYYANTVKGRFTISRDNSKNTLYLQMNSLRAEDTAVYYCARDGYPTGGAMDYWGQGTSVTVSS |  |  |  | 1.58 | 0.000901 | 569000 |  |  |
| F3′-1292 (bispecific antibody, part only; not given: Fc and unrelated binding arm, not shown: another chain or arm of the molecule; a dimerising Fc or GST) scFv: QLQLQESGPGLVKPSETLSLTCTVSGFSLTNYGLHWIRQPPGKCLEWIGVIWSGGKTDYNPSLKSRVTISKDTSKNQFSLKLSSVQANDTAVYYCAKYDYDDSLDYWGQGTLVTVSSGGGGSGGGGSGGGGSGGGGSDIQMTQSPSSLSASVGDRVTITCHASQNINFWLSWYQQKPGKIPKLLIYEASNLHTGVPSRFSGSGSGTRFTLTISSLQPEDIATYYCQQSHSYPLTFGCGTKLEIK |  |  |  | 3.22 | 0.0013 | 402000 |  |  |
| F3′-1296 (bispecific antibody, part only; not given: Fc and unrelated binding arm, not shown: another chain or arm of the molecule; a dimerising Fc or GST) scFv: QLQLQESGPGLVKPSETLSLTCTVSGFSLTNYGLHWIRQPPGKCLEWIGVIWSGGKTDYNPSLKSRVTISKDTSKNQFSLKLSSVQANDTAVYYCARYDYDDSLDYWGQGTLVTVSSGGGGSGGGGSGGGGSGGGGSDIQMTQSPSSLSASVGDRVTITCHASQNINFWLSWYQQKPGKIPKLLIYEASNLHTGVPSRFSGSGSGTRFTLTISSLQPEDIATYYCQQSHSYPLTFGCGTKLEIK |  |  |  | 1.34 | 0.00117 | 874000 |  |  |
| F3′-1297 (bispecific antibody, part only; not given: Fc and unrelated binding arm, not shown: another chain or arm of the molecule; a dimerising Fc or GST; small tags and cut ends) scFv: QLQLQESGPGLVKPSETLSLTCTVSGFSLTNYGLHWIRQPPGKCLEWIGVIWSGGKTDYNPSLKSRVTISKDTSKNQFSLKLSSVQANDTAVYYCAKYDYDDSLDYWGQGTLVTVSSGGGGSGGGGSGGGGSGGGGSDIQMTQSPSSLSASVGDRVTITCHASQNINFWLSWYQQKPGKAPKLLIYEASNLHTGVPSRFSGSGSGTRFTLTISSLQPEDIATYYCQQSHSYPLTFGCGTKLEIK |  |  |  | 2.79 | 0.00141 | 504000 |  |  |
| Murine F3′-9F11 (bispecific antibody, part only; not given: format, linker, Fc, other arm, V domains shown, not shown: a dimerising Fc or GST) VH: EVQLQESGGGLVQPGGSRKLSCAASGFTFNSFGMHWVRQAPEKGLEWVAFISSGSTSIYYANTVKGRFTISRDNPKNTLFLQMTSLRSEDTAMYYCARDGYPTGGAMDYWGQGTSVTVSS VL: DIKMTQSPSSMYASLGERVTITCKASQDIYNYLSWFQLKPGKSPRPLIYRANILVSGVPSKFSGSGSGQDYSLTINSLEYEDLGIYYCLQFDAFPFTFGSGTKLEIK |  |  |  |  |  |  |  | Kd [8]: 0.96 nM; koff [8]: 0.00111 s⁻¹; kon [8]: 1.15e+06 M⁻¹ s⁻¹; Kd [9]: 0.34 nM; koff [9]: 0.000374 s⁻¹; kon [9]: 1.11e+06 M⁻¹ s⁻¹; Kd [10]: 0.62 nM; koff [10]: 0.00098 s⁻¹; kon [10]: 1.58e+06 M⁻¹ s⁻¹ |
| F3′-1304 (bispecific antibody, part only; not given: Fc and unrelated binding arm, not shown: another chain or arm of the molecule; a dimerising Fc or GST; small tags and cut ends) scFv: DIQMTQSPSSLSASVGDRVTITCHASQNINFWLSWYQQKPGKIPKLLIYEASNLHTGVPSRFSGSGSGTRFTLTISSLQPEDIATYYCQQSHSYPLTFGCGTKLEIKGGGGSGGGGSGGGGSGGGGSQLQLQESGPGLVKPSETLSLTCTVSGFSLTNYGLHWIRQPPGKCLEWIGVIWSGGKTDYNPSLKSRVTISKDTSKNQFSLKLSSVQAADTAVYYCAKYDYDDSLDYWGQGTLVTVSS |  |  |  | 2.7 | 0.0013 | 480000 |  | EC50 (read off the curve) [11]: 10 nM |
| F3′-1306 (bispecific antibody, part only; not given: Fc and unrelated binding arm, not shown: another chain or arm of the molecule; a dimerising Fc or GST; small tags and cut ends) scFv: DIQMTQSPSSLSASVGDRVTITCHASQNINFWLSWYQQKPGKAPKLLIYEASNLHTGVPSRFSGSGSGTRFTLTISSLQPEDIATYYCQQSHSYPLTFGCGTKLEIKGGGGSGGGGSGGGGSGGGGSQLQLQESGPGLVKPSETLSLTCTVSGFSLTNYGLHWIRQPPGKCLEWIGVIWSGGKTDYNPSLKSRVTISKDTSKNQFSLKLSSVQANDTAVYYCAKYDYDDSLDYWGQGTLVTVSS |  |  |  | 5.16 | 0.0489 | 9.48e+06 |  |  |

Further lines, with some results ahead:

| EC50 [5] [nM] | EC50 [6] [nM] | Max binding MFI [5] [MFI] | Kd [7] [nM] | koff [7] [s⁻¹] | kon [7] [M⁻¹ s⁻¹] | Max binding MFI [6] [MFI] | Binder | further results |
| --- | --- | --- | --- | --- | --- | --- | --- | --- |
| 0.7 | 1.3 | 420 | 1.21 | 0.00127 | 1.04e+06 | 8760 | AB0189 (bispecific antibody, part only; not given: Fc, unrelated binder arm, linkers, not shown: another chain or arm of the molecule; a dimerising Fc or GST; small tags and cut ends) scFv: DIKMTQSPSSLSASVGDRVTITCKASQDIYNYLSWFQQKPGKAPKPLIYRANILVSGVPSRFSGSGSGQDYTLTISSLQPEDIATYYCLQFDAFPFTFGCGTKLEIKGGGGSGGGGSGGGGSGGGGSEVQLVESGGGVVQPGGSLRLSCAASGFTFNAFGMHWVRQAPGKCLEWVAFISSGSTSIYYANTVKGRFTISRDNSKNTLYLQMNSLRAEDTAVYYCARDGYPTGGAMDYWGQGTSVTVSS |  |
| 0.6 | 0.6 | 420 | 1.73 | 0.00126 | 728000 | 7940 | AB0191 (bispecific antibody, part only; not given: Fc, unrelated binder arm, linkers, not shown: another chain or arm of the molecule; a dimerising Fc or GST; small tags and cut ends) scFv: EVQLVESGGGVVQPGGSLRLSCAASGFTFNSFGMHWVRQAPGKCLEWVAFISSGSTSIYYANTVKGRFTISRDNSKNTLYLQMNSLRAEDTAVYYCARDGYPTGGAMDYWGQGTSVTVSSGGGGSGGGGSGGGGSGGGGSDIQMTQSPSSLSASVGDRVTITCKASQDIYNYLSWFQQKPGKAPKPLIYRANILVSGVPSRFSGSGSGQDYTFTISSLQPEDIATYYCLQFDAFPFTFGCGTKLEIK |  |
| 0.7 | 0.6 | 551 | 1.68 | 0.00129 | 766000 | 10800 | AB0195 (bispecific antibody, part only; not given: Fc and unrelated binding arm, not shown: another chain or arm of the molecule; a dimerising Fc or GST) scFv: EVQLVESGGGVVQPGGSLRLSCAASGFTFNAFGMHWVRQAPGKCLEWVAFISSGSTSIYYANTVKGRFTISRDNSKNTLYLQMNSLRAEDTAVYYCARDGYPTGGAMDYWGQGTSVTVSSGGGGSGGGGSGGGGSGGGGSDIKMTQSPSSLSASVGDRVTITCKASQDIYNYLSWFQQKPGKAPKPLIYRANILVSGVPSRFSGSGSGQDYTLTISSLQPEDIATYYCLQFDAFPFTFGCGTKLEIK |  |
| 0.6 | 0.7 | 503 | 1.26 | 0.00138 | 1.09e+06 | 10200 | AB0192 (bispecific antibody, part only; not given: Fc, unrelated binder arm, linkers, not shown: another chain or arm of the molecule; a dimerising Fc or GST; small tags and cut ends) scFv: EVQLVESGGGVVQPGGSLRLSCAASGFTFNAFGMHWVRQAPGKCLEWVAFISSGSTSIYYANTVKGRFTISRDNSKNTLYLQMNSLRAEDTAVYYCARDGYPTGGAMDYWGQGTSVTVSSGGGGSGGGGSGGGGSGGGGSDIQMTQSPSSLSASVGDRVTITCKASQDIYNYLSWFQQKPGKAPKPLIYRANILVSGVPSRFSGSGSGQDYTFTISSLQPEDIATYYCLQFDAFPFTFGCGTKLEIK |  |
